The subject of the series is Escherichia coli TOP10. Kind of series: shrunken log2 fold change of peptide-encoding DNA abundance (4.5 h post-induction vs induction); higher = less antimicrobial activity (less host growth inhibition). Conditions: time post-induction: 4.5 h; library: site-saturation at positions 5, 18, 19, 20.
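Also: peptides expressed intracellularly from a pBAD plasmid library in pooled LB shake-flask culture, induced with 0.3% L-arabinose, DNA abundance read by NGS, three biological replicates, DESeq2 with apeglm shrinkage.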

With RRIRRRPPRLPRPRPRPFGFPRP, the “shrunken log2 fold change” value stood at 0.197. The result for RRIRCRPPRLPRPRPRPYMLPRP reads -1.06.

Take RRIRHRPPRLPRPRPRPPLEPRP: the “shrunken log2 fold change” value stood at 0.223. The result for RRIRKRPPRLPRPRPRPDELPRP reads 2.45; that for RRIRPRPPRLPRPRPRPNGAPRP, 0.327; that for RRIRERPPRLPRPRPRPLLVPRP, -0.441. The result for RRIRFRPPRLPRPRPRPLWSPRP reads 0.655. Take RRIRSRPPRLPRPRPRPPTCPRP: the “shrunken log2 fold change” value was found to be 0.155. The result for RRIRWRPPRLPRPRPRPSSGPRP reads -0.00985; that for RRIRHRPPRLPRPRPRPPSQPRP, -0.232.

With RRIRVRPPRLPRPRPRPDDAPRP, the “shrunken log2 fold change” value was determined as 0.134. The result for RRIRTRPPRLPRPRPRPATWPRP reads 0.164.

For RRIRPRPPRLPRPRPRPQEKPRP, the “shrunken log2 fold change” value is -0.0282. RRIRIRPPRLPRPRPRPASPPRP: the “shrunken log2 fold change” value is -0.0763. The result for RRIRHRPPRLPRPRPRPDWAPRP reads -0.0995. The result for RRIRKRPPRLPRPRPRPGSHPRP reads 0.0202.

RRIRFRPPRLPRPRPRPVWSPRP: the “shrunken log2 fold change” value was determined as 0.175.

Consider RRIRGRPPRLPRPRPRPFVAPRP, for which the “shrunken log2 fold change” value was found to be 0.751. The result for RRIRGRPPRLPRPRPRPTTAPRP reads 1.31. The result for RRIRTRPPRLPRPRPRPEKCPRP reads 0.0324; that for RRIRTRPPRLPRPRPRPDRQPRP, -0.0344. The result for RRIRQRPPRLPRPRPRPVIGPRP reads -0.0941; that for RRIRQRPPRLPRPRPRPWTAPRP, -0.264; that for RRIRVRPPRLPRPRPRPAIAPRP, 0.107. Regarding RRIRWRPPRLPRPRPRPYMKPRP, the “shrunken log2 fold change” value was -0.459. As for RRIRMRPPRLPRPRPRPKYRPRP, the “shrunken log2 fold change” value was 0.0666. RRIRKRPPRLPRPRPRPRYDPRP: the “shrunken log2 fold change” value is -0.0842.

As for RRIRQRPPRLPRPRPRPKACPRP, the “shrunken log2 fold change” value is 0.0193. RRIRTRPPRLPRPRPRPMGMPRP: the “shrunken log2 fold change” value is -0.12. The result for RRIRQRPPRLPRPRPRPYKLPRP reads -0.603. The result for RRIRTRPPRLPRPRPRPRNLPRP reads -0.218.

Consider RRIRPRPPRLPRPRPRPRREPRP, for which the “shrunken log2 fold change” value came out at 0.187. RRIRKRPPRLPRPRPRPAAEPRP: the “shrunken log2 fold change” value was 1.12. The result for RRIRDRPPRLPRPRPRPIGFPRP reads 0.0229; that for RRIRDRPPRLPRPRPRPAQDPRP, 0.684.

On to RRIRFRPPRLPRPRPRPRNAPRP, for which the “shrunken log2 fold change” value came to 0.347. The result for RRIRERPPRLPRPRPRPCLFPRP reads -0.222. The result for RRIRDRPPRLPRPRPRPWGPPRP reads -0.0594; that for RRIRDRPPRLPRPRPRPNRTPRP, -0.477. Consider RRIRQRPPRLPRPRPRPCWYPRP, for which the “shrunken log2 fold change” value is -0.261. The result for RRIRKRPPRLPRPRPRPVSGPRP reads 0.233; that for RRIRERPPRLPRPRPRPWDMPRP, -0.212. The result for RRIRNRPPRLPRPRPRPEYIPRP reads -0.0947; that for RRIRFRPPRLPRPRPRPRRTPRP, 0.375. The result for RRIRGRPPRLPRPRPRPWPDPRP reads 0.194; that for RRIRNRPPRLPRPRPRPGQFPRP, -0.0134; that for RRIRLRPPRLPRPRPRPCNSPRP, 0.165. On to RRIRTRPPRLPRPRPRPYYEPRP, for which the “shrunken log2 fold change” value is -0.0557. The result for RRIRFRPPRLPRPRPRPCHYPRP reads -0.211; that for RRIRLRPPRLPRPRPRPNHKPRP, -0.335; that for RRIRSRPPRLPRPRPRPQFCPRP, -0.16. The result for RRIRARPPRLPRPRPRPANAPRP reads 0.301. As for RRIRTRPPRLPRPRPRPIHEPRP, the “shrunken log2 fold change” value was -0.259. The result for RRIRGRPPRLPRPRPRPEGKPRP reads 0.574.

RRIRQRPPRLPRPRPRPYYRPRP: the “shrunken log2 fold change” value was -0.124. The result for RRIRDRPPRLPRPRPRPILSPRP reads -0.216. The result for RRIRMRPPRLPRPRPRPSYEPRP reads -0.293; that for RRIRMRPPRLPRPRPRPPLPPRP, 0.879. The result for RRIRVRPPRLPRPRPRPWMSPRP reads -0.076; that for RRIRNRPPRLPRPRPRPHNTPRP, -0.643. With RRIRKRPPRLPRPRPRPWVMPRP, the “shrunken log2 fold change” value was -0.251.

For the sequence RRIRRRPPRLPRPRPRPMRHPRP, the “shrunken log2 fold change” value was 1.18. For the sequence RRIRCRPPRLPRPRPRPSTCPRP, the “shrunken log2 fold change” value was -0.355. The result for RRIRCRPPRLPRPRPRPVSGPRP reads 0.357. The result for RRIRGRPPRLPRPRPRPGPCPRP reads 0.854; that for RRIRARPPRLPRPRPRPAPSPRP, 0.787. As for RRIRIRPPRLPRPRPRPRSGPRP, the “shrunken log2 fold change” value worked out at 0.242. The result for RRIRARPPRLPRPRPRPRCLPRP reads 0.157; that for RRIRFRPPRLPRPRPRPERRPRP, 0.166; that for RRIRIRPPRLPRPRPRPEDEPRP, 0.0112.

RRIRERPPRLPRPRPRPVYHPRP: the “shrunken log2 fold change” value is -1.35. In the case of RRIRHRPPRLPRPRPRPDIYPRP, the “shrunken log2 fold change” value was found to be 0.027.

As to RRIRNRPPRLPRPRPRPNMEPRP, the “shrunken log2 fold change” value is -0.0369. The result for RRIRNRPPRLPRPRPRPEYAPRP reads -0.175; that for RRIRFRPPRLPRPRPRPCFIPRP, -0.564. The result for RRIRCRPPRLPRPRPRPKANPRP reads 1.15; that for RRIRTRPPRLPRPRPRPLMDPRP, -0.0405; that for RRIRMRPPRLPRPRPRPLPHPRP, 0.407. The result for RRIRPRPPRLPRPRPRPRVLPRP reads -0.0343. As to RRIRQRPPRLPRPRPRPVHTPRP, the “shrunken log2 fold change” value was -0.168.

Consider RRIRTRPPRLPRPRPRPYPVPRP, for which the “shrunken log2 fold change” value was determined as 0.154. The result for RRIRHRPPRLPRPRPRPRPPPRP reads 1.15. On to RRIRDRPPRLPRPRPRPIAQPRP, for which the “shrunken log2 fold change” value was -0.0679. As to RRIRRRPPRLPRPRPRPAPMPRP, the “shrunken log2 fold change” value worked out at 0.957. The result for RRIRDRPPRLPRPRPRPRWRPRP reads 0.605; that for RRIRSRPPRLPRPRPRPYNAPRP, -0.254; that for RRIRVRPPRLPRPRPRPWINPRP, -0.565. The result for RRIRLRPPRLPRPRPRPCSQPRP reads -0.0964; that for RRIRRRPPRLPRPRPRPSSWPRP, -0.162; that for RRIRERPPRLPRPRPRPAHLPRP, 0.301. The result for RRIRQRPPRLPRPRPRPFFGPRP reads 6.44e-05; that for RRIRGRPPRLPRPRPRPMFQPRP, 0.357. Turning to RRIRGRPPRLPRPRPRPKHSPRP, the “shrunken log2 fold change” value worked out at 0.209. The result for RRIRNRPPRLPRPRPRPNLTPRP reads -0.335; that for RRIRERPPRLPRPRPRPEGVPRP, 0.172.

For the sequence RRIRWRPPRLPRPRPRPNLKPRP, the “shrunken log2 fold change” value was -0.0669. The result for RRIRWRPPRLPRPRPRPLNLPRP reads -0.184. The result for RRIRMRPPRLPRPRPRPIGDPRP reads 0.0215; that for RRIRARPPRLPRPRPRPDTFPRP, 0.158; that for RRIRVRPPRLPRPRPRPTTIPRP, -0.0865. The result for RRIRARPPRLPRPRPRPPAEPRP reads 1.15.

As for RRIRKRPPRLPRPRPRPDNAPRP, the “shrunken log2 fold change” value stood at 0.05.

For RRIRWRPPRLPRPRPRPMRNPRP, the “shrunken log2 fold change” value worked out at 0.315. RRIRLRPPRLPRPRPRPRCWPRP: the “shrunken log2 fold change” value came to 0.371. The result for RRIRWRPPRLPRPRPRPGYYPRP reads -0.125. The result for RRIRQRPPRLPRPRPRPIHEPRP reads -0.0182. The result for RRIRQRPPRLPRPRPRPHRVPRP reads -0.00151. Turning to RRIRARPPRLPRPRPRPVVMPRP, the “shrunken log2 fold change” value turned out to be 0.282. The result for RRIRARPPRLPRPRPRPNGPPRP reads 0.149; that for RRIRLRPPRLPRPRPRPDSAPRP, 0.0605.

Turning to RRIRWRPPRLPRPRPRPEDSPRP, the “shrunken log2 fold change” value amounted to 0.769.

RRIRTRPPRLPRPRPRPYDKPRP: the “shrunken log2 fold change” value was -0.389.

Turning to RRIRGRPPRLPRPRPRPQAHPRP, the “shrunken log2 fold change” value was found to be 0.441. The result for RRIRDRPPRLPRPRPRPDDTPRP reads 0.336; that for RRIRIRPPRLPRPRPRPVNNPRP, -0.272; that for RRIRLRPPRLPRPRPRPESVPRP, 0.255.

Regarding RRIRMRPPRLPRPRPRPWKKPRP, the “shrunken log2 fold change” value amounted to 0.234.

In the case of RRIRRRPPRLPRPRPRPIIGPRP, the “shrunken log2 fold change” value was found to be 0.327. Take RRIRDRPPRLPRPRPRPMRCPRP: the “shrunken log2 fold change” value came out at 0.147. In the case of RRIRARPPRLPRPRPRPIGYPRP, the “shrunken log2 fold change” value is -0.0969.

Regarding RRIRPRPPRLPRPRPRPTLIPRP, the “shrunken log2 fold change” value is -0.169. For the sequence RRIRIRPPRLPRPRPRPAPMPRP, the “shrunken log2 fold change” value was found to be 0.0013.

Consider RRIRHRPPRLPRPRPRPPCEPRP, for which the “shrunken log2 fold change” value came out at 0.00703. Regarding RRIRMRPPRLPRPRPRPDPAPRP, the “shrunken log2 fold change” value was determined as 1.13. The result for RRIRFRPPRLPRPRPRPQRWPRP reads 0.427.

Values taken from the supplement of paper PMC9112550, “Optimization of the antimicrobial peptide Bac7 by deep mutational scanning” (BMC Biology, 2022).
